Substitutions are numbered along the chain they refer to. Names may count otherwise.
B1: 14H11 (antibody, V domains shown)
VH: QSLEESGGDLVKPGASLTLTCTASGFSFSSSYYMCWVRQAPGKGLEWIASIYAGSSGAPYYAGWAKGRFTISKTSSTAVTLQMSSLTAADTATYFCAREGFAETGGYGYAAYFNLWGPGTLVTVSS
VL: AIEMTQSPPSLSASVGETVRIRCLASEDIASSVSWYQQKPGKPPTLLIYGASNLESGVPPRFTGSGSGTDYTLTIGGVQAEDAATYYCLGGYSYSSTGTAFGAGTKVEIK
notes: Recombinant rabbit anti-KLK7 monoclonal antibody, expressed in Expi293 cells, protein A purified, bivalent; also called rb.14H11
B2: hu.10C5VY.hu14H11c.L2H11 WT (bispecific antibody, human IgG1, kappa, N297G)
heavy 1: not shown
light 1: DIQMTQSPSSLSASVGDRVTITCLASEDIASSVSWYQKKPGKAPKLLIYGASNLESGVPSRFSGSGSGTDYTLTISSLQPEDFATYYCLGGYSYSSTGTAFGGGTKVEIKRTVAAPSVFIFPPSDEQLKSGTASVECLLNNFYPREAKVQWKVDNALQSGNSQESVTEQDSKDSTYSLSSTLTLSKADYEKHKVYACEVTHQGLSSPVTKSFNRGEC
heavy 2: EVQLVESGGGLVQPGGSLRLSCAASGFSLSSYGVTWVRKAPGKGLEWIGYITSVYGVSYYASWAKSRSTISRDTSKNTVYLQMGSLRAEDMAVYYCARENPDYGYAYDAWGQGTTVTVSSASTKGPSVFPLAPSSKSTSGGTAALGCLVKDYFPEPVTVSWNSGALTSGVHTFPAVLQSSGLYSLESVVTVPSSSLGTQTYICNVNHKPSNTKVDKKVEPKSCDKTHTCPPCPAPELLGGPSVFLFPPKPKDTLMISRTPEVTCVVVDVSHEDPEVKFNWYVDGVEVHNAKTKPREEQYGSTYRVVSVLTVLHQDWLNGKEYKCKVSNKALPAPIEKTISKAKGQPREPQVYTLPPSREEMTKNQVSLSCAVKGFYPSDIAVEWESNGQPENNYKTTPPVLDSDGSFFLVSKLTVDKSRWQQGNVFSCSVMHEALHNHYTQKSLSLSPGK
light 2: AIRMTQSPSSFSASTGDRVTITCQASESISNELSWYQEKPGKAPKLLIYYASTLASGVPSRFSGSGSGTDFTLTISSLQPEDFATYYCAQGYGSSGVENVFGGGTKVEIKRTVAAPSVFIFPPSDEQLKSGTASVKCLLNNFYPREAKVQWKVDNALQSGNSQESVTEQDSKDSTYSLSSTLTLSKADYEKHKVYACEVTHQGLSSPVTKSFNRGEC
notes: hIgG1 N297G knob-in-hole bispecific with Q39E/Q38K, Q39K/Q38E, S183K/V133E and S183E/V133K pairing mutations; also called anti-KLK5/KLK7 bispecific antibody without M428L/N434S
B3: hu.10C5VY.hu14H11c.L2H11 LS (bispecific antibody, human IgG1, kappa, N297G)
heavy 1: EQQLVESGGGLIQPGGSLRLSCAASGFSFSSSYYMSWVREAPGKGLEWVSSIYAGSSGAPYYAGWAKGRFTISRDNSKNTLYLQMNSLRAEDTAVYYCAREGFAETGGYGYAAYFNLWGPGTLVTVSSASTKGPSVFPLAPSSKSTSGGTAALGCLVKDYFPEPVTVSWNSGALTSGVHTFPAVLQSSGLYSLKSVVTVPSSSLGTQTYICNVNHKPSNTKVDKKVEPKSCDKTHTCPPCPAPELLGGPSVFLFPPKPKDTLMISRTPEVTCVVVDVSHEDPEVKFNWYVDGVEVHNAKTKPREEQYGSTYRVVSVLTVLHQDWLNGKEYKCKVSNKALPAPIEKTISKAKGQPREPQVYTLPPSREEMTKNQVSLWCLVKGFYPSDIAVEWESNGQPENNYKTTPPVLDSDGSFFLYSKLTVDKSRWQQGNVFSCSVLHEALHSHYTQKSLSLSPGK
light 1: B2 light 1
heavy 2: B2 heavy 2 with M431L, N437S
light 2: B2 light 2
notes: hIgG1 N297G knob-in-hole bispecific with M428L/N434S and the chain pairing mutations; also called anti-KLK5/KLK7 bispecific antibody with M428L/N434S (LS)

Columns and labels:
[1] = target: T1, cyano KLK7 (SEQ ID NO: 6 plus a C-terminal FLAG tag) (cynomolgus monkey, UniProt P49862 30-253 (human entry)); assay: cell-based or functional assay
T1 sequence (P49862 other isoform, or with tags, fused parts or gaps): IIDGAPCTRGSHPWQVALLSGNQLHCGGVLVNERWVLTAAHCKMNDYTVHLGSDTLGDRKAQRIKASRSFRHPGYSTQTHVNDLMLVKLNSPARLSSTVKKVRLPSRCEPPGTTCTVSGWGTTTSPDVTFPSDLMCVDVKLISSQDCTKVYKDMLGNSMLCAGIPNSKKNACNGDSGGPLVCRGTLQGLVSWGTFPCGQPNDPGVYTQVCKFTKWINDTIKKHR

[2] = target: T2, human KLK7 (SEQ ID NO: 4 plus a C-terminal FLAG tag) (human, UniProt P49862 30-253); assay: cell-based or functional assay
T2 sequence (P49862 30-253): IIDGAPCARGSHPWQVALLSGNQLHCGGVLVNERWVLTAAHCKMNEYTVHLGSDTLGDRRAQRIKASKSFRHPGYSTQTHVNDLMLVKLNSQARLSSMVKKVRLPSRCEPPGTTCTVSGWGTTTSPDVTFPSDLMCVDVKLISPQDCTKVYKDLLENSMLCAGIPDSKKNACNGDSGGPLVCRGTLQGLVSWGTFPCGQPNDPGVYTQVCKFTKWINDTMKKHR

human KLK7 [3] = target: T3, human KLK7 (human, UniProt P49862 30-253); assay: SPR BIAcore T200, antibody on protein A chip, 25 C
T3 construct: Antigen injected in SPR; also called hu KLK7; huKLK7
T3 sequence (P49862 30-253): as above
Protocol: (§1) The binding affinity of the antibodies was determined by BIAcore™ T200 machine. Rabbit antibodies were recombinantly expressed. For kinetics measurements, antibodies were captured on research grade protein A chip (GE Healthcare, USA) to achieve approximately 300 RU. Ten-fold serial dilutions of human and cyano KLK7 were injected in HBS-P buffer at 25° C. with a flow rate of 30 μL/min. Association rates (ka) and dissociation rates (kd) were calculated using a 1:1 Langmuir binding model (BIAcore™ T200 Evaluation Software version 2.0). The equilibrium dissociation constant (KD) was calculated as the ratio kd/ka.

cynomolgus monkey KLK7 [4] = target: T4, cynomolgus monkey KLK7 (cynomolgus monkey, UniProt P49862 30-253 (human entry)); assay: SPR BIAcore T200, antibody on protein A chip, 25 C
T4 construct: Antigen injected in SPR; also called Cy KLK7; cyno KLK7
T4 sequence (P49862 other isoform, or with tags, fused parts or gaps): as the sequence (P49862 other isoform, or with tags, fused parts or gaps) above
Protocol: as §1

huKLK11 = target: T5, huKLK11 (human, UniProt Q9UBX7 54-282, limits assumed); assay: SPR (BIAcore T200), as for Table 1
T5 sequence (looked up): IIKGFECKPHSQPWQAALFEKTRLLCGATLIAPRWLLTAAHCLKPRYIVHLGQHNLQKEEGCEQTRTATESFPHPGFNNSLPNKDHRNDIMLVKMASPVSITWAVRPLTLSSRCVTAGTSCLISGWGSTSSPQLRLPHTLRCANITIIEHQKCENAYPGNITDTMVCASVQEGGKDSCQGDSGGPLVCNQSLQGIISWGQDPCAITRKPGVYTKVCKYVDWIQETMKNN

huKLK4 = huKLK4 (human, UniProt Q9Y5K2 31-254, limits assumed); assay: SPR (BIAcore T200), as for Table 1
Chain of huKLK4 (Q9Y5K2 31-254 limits assumed): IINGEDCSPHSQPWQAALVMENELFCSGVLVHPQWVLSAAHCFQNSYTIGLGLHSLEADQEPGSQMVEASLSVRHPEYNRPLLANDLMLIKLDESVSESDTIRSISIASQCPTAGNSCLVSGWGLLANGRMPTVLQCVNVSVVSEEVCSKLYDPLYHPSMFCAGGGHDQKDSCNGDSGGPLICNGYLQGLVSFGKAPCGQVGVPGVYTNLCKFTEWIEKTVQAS

human KLK5 [5] = target: T6, human KLK5 (human, UniProt Q9Y337 67-293); assay: SPR (BIAcore T200), as for Table 1
T6 construct: also called huKLK5; KLK5 AMC
T6 sequence: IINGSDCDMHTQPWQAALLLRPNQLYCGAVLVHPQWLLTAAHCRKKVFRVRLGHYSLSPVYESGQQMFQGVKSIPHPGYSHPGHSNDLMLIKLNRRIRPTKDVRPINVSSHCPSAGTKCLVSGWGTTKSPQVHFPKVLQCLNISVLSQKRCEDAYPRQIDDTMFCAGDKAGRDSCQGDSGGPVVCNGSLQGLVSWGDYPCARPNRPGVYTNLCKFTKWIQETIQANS

huKLK1 = huKLK1 (human, UniProt P06870 25-262, limits assumed); assay: SPR (BIAcore T200), as for Table 1
Chain of huKLK1 (P06870 25-262 limits assumed): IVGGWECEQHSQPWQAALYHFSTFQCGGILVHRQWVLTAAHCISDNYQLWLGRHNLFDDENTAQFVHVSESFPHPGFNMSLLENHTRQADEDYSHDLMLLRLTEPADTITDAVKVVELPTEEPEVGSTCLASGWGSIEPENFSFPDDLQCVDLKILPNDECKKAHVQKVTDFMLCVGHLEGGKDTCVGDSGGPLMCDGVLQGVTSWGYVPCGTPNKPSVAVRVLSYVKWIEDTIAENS

human KLK5 [6] = target: T6, human KLK5; assay: cell-based or functional assay
[7] = target: T2, human KLK7 (SEQ ID NO: 4 plus a …); assay: cell-based or functional assay; remark: listed apart in the source
cynomolgus monkey KLK5 [8] = target: T7, cynomolgus monkey KLK5 (cynomolgus monkey, UniProt Q9Y337 67-293 (human entry)); assay: cell-based or functional assay
T7 chain: T6 sequence with M9E, R21G, A29G, V71I, R98H, P99S, K128R, K169E, R202K

[9] = target: T1, cyano KLK7 (SEQ ID NO: 6 plus a …); assay: cell-based or functional assay; remark: listed apart in the source
human KLK5 [10] = target: T6, human KLK5; assay: kinetics of bispecific antibody, method not restated (SPR implied)
cynomolgus monkey KLK5 [11] = target: T7, cynomolgus monkey KLK5; assay: as above
human KLK7 [12] = target: T3, human KLK7; assay: as above
cynomolgus monkey KLK7 [13] = target: T4, cynomolgus monkey KLK7; assay: as above

Binder	IC50, KLK5 direct functional assay (Boc-Val-Pro-Arg-AMC), bivalency corrected (human KLK5 [6]) [nM]	IC50, KLK7 direct functional assay (Mca-RPKPVE-Nval-WRK(Dnp)), bivalency corrected [7] [nM]	IC50, KLK5 direct functional assay (Boc-Val-Pro-Arg-AMC), bivalency corrected (cynomolgus monkey KLK5 [8]) [nM]	IC50, KLK7 direct functional assay (Mca-RPKPVE-Nval-WRK(Dnp)), bivalency corrected [9] [nM]	Kd (human KLK5 [10]) [nM]	koff (human KLK5 [10]) [s⁻¹]	kon (human KLK5 [10]) [M⁻¹ s⁻¹]	Kd (cynomolgus monkey KLK5 [11]) [nM]	koff (cynomolgus monkey KLK5 [11]) [s⁻¹]	kon (cynomolgus monkey KLK5 [11]) [M⁻¹ s⁻¹]	Kd (human KLK7 [12]) [nM]	koff (human KLK7 [12]) [s⁻¹]	kon (human KLK7 [12]) [M⁻¹ s⁻¹]	Kd (cynomolgus monkey KLK7 [13]) [nM]	koff (cynomolgus monkey KLK7 [13]) [s⁻¹]	kon (cynomolgus monkey KLK7 [13]) [M⁻¹ s⁻¹]	other results
B1	–	–	–	–	–	–	–	–	–	–	–	–	–	–	–	–	IC50, KLK7 direct functional assay (Mca peptide substrate), bivalency not accounted for [1]: 0.15 nM; IC50, KLK7 direct functional assay (Mca peptide substrate), bivalency not accounted for [2]: 0.11 nM; koff (human KLK7 [3]): < 1e-06 s⁻¹; koff (cynomolgus monkey KLK7 [4]): < 1e-06 s⁻¹; binding result (huKLK11): no binding; binding result (huKLK4): no binding; binding result (human KLK5 [5]): no binding; binding result (huKLK1): no binding
B2	0.67	0.37	0.73	0.37	0.0008	1.5e-05	2.1e+07	0.019	0.00019	1e+07	< 0.001	< 1e-06	5.8e+07	0.0023	9e-05	4e+07	–
B3	0.54	0.34	0.58	0.36	0.0015	1.97e-05	1.5e+07	0.016	0.00018	1.11e+07	0.00024	1.4e-05	5.7e+07	0.003	7e-05	3e+07	–

Reference: US20240084042A1 (Genentech, published 2024)
